According to paper doi:10.1101/846337:

Biological target: F-actin (filamentous actin, purified from chicken breast) (Gallus gallus (chicken)) (UniProt P68139)
Test: co-sedimentation

Substance	Kd
UTRN-ABD H29A (from UniProt P46939 1-261) (domain or fragment)	2.8 µM
UTRN-ABD N109A (from UniProt P46939 1-261) (domain or fragment)	55 µM
UTRN-ABD V87D (from UniProt P46939 1-261) (domain or fragment)	> 100 µM

More lines, in order of falling Kd, values ahead:

Kd	Substance
38 µM	UTRN-ABD I22D (from UniProt P46939 1-261) (domain or fragment)
1.8 µM	Human UTRN-ABD (utrophin actin binding domain, amino acids 1-261) (from UniProt P46939 1-261) (domain or fragment)
